Consider one molecule from publication PMC5878720.

The target in the test is T1, IL-11Rα (human (endogenous in RA ST fibroblasts and HUVECs)) (UniProt Q14626).
T1 sequence: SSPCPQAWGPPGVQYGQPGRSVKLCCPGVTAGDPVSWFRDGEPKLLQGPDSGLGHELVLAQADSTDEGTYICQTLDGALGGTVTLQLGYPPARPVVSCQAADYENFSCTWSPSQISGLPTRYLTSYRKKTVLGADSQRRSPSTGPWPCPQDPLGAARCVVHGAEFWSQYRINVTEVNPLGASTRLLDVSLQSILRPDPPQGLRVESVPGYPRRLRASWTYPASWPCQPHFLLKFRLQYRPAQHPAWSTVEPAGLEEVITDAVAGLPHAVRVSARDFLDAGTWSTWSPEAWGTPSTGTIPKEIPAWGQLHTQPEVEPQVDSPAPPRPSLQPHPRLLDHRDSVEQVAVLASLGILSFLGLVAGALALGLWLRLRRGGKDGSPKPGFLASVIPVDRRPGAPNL

B1: IL-11 (ligand)
chain: PGPPPGPPRVSPDPRAELDSTVLLTRSLLADTRQLAAQLRDKFPADGDHNLDSLPTLAMSAGALGALQLPGVLTRLRADLLSYLRHVQWLRRAGGSSLKTLEPELGTLQARLDRLLRRLQLLMSRLALPQPPPDPPAPPLAPPSSAWGGIRAAHAILGGLHLTLDWAVRGLLLLKTRL
As to B1, the HUVEC transwell migration, 24h, IL-11 1-100 ng/ml, fold over control is 3 to 15 fold.
